Test results taken from the supplement of paper PMC10126150.
± gives the standard deviation of the averaged measurements.

System: ATP
Experiment: switch fluorescence ratio, 500 uM ATP over buffer (Cy3 cluster intensity, sum of 5 cycles each) (fold (ratio)); higher = stronger signal-on switching upon ATP binding; sequences stand for … in TCGTCGGCAGCGTCAGATGTGTATAAGAGACAGTTTTTTTTTTTTTTTTTTTTTTTTT…TC
Settings: aptamer strand: ATP DNA aptamer (quencher-CACCTGGGGGAGTATTGCGGAGGAAGG + anchor), 100 nM annealed; ATP concentration: 500 uM
Summary of the method: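 Clusters carrying Cy3-labelled switching strands on a modified Illumina MiSeq flow-cell were annealed to 100 nM quencher-labelled ATP aptamer and imaged in selection buffer. They were imaged again after 15 min with 500 uM ATP at 22 °C, over five buffer/ATP cycles with NaOH stripping and re-annealing in between. For each cluster, the fluorescence ratio is the summed Cy3 intensity of the target cycles divided by that of the buffer cycles, averaged per switch-domain sequence. Clusters outside 100-1000 RFU were left out.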
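Also: ATP exposure 15 min at 22 °C before imaging.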

Sequence | switch fluorescence ratio
AACGCGACAT | 1.29 ± 0.022
AACGCGGGGG | 0.983 ± 0.044
AACGCGGTGG | 0.941 ± 0.017
AACGGCCGTG | 1.02 ± 0.046
AACGGCGGTG | 1.01 ± 0.019
AACGGGCCAG | 0.997 ± 0.028
AACGGTGCGG | 1.01 ± 0.026
AACGGTGGTC | 1.03 ± 0.075
AACGTAAATA | 1.11 ± 0.053
AACGTAGATA | 1.042 ± 0.0098
AACGTAGGTA | 1.038 ± 0.0051
AACGTATGGG | 1.03 ± 0.039
AACGTATGTT | 0.9895 ± 0.0028
AACGTCTGGA | 0.9725 ± 0.0037
AACGTGGCGA | 1.03 ± 0.047
AACGTGTGGA | 0.9979 ± 0.0093
AACGTTAATT | 1.025 ± 0.0081
AACGTTGCTT | 1.01 ± 0.013
AACGTTGGAG | 1.02 ± 0.019
AACTAAATCT | 1.023 ± 0.00042
AACTAACGTG | 1.3 ± 0.056
AACTACCAGA | 1.062 ± 0.0045
AACTAGCCGG | 0.961 ± 0.025

Sequence | switch fluorescence ratio
AACTAGGCGC | 0.9875 ± 0.0065
AACTAGGGCT | 0.976 ± 0.028
AACTATTCGG | 0.9788 ± 0.0054
AACTCCAGGG | 1.35 ± 0.2
AACTCCTAAG | 1.03 ± 0.021
AACTCGGGGT | 1.02 ± 0.05
AACTCTGTTA | 0.982 ± 0.03
AACTGCAATT | 2 ± 1.1
AACTGGATAT | 1.04 ± 0.017
AACTGGGGAA | 0.973 ± 0.016
AACTGGGGAT | 0.9809 ± 0.0018
AACTGGGGGA | 1.06 ± 0.054
AACTGGGGTA | 0.977 ± 0.01
AACTGGGGTT | 0.9868 ± 0.0035
AACTGTAGAC | 1.121 ± 0.0022
AACTGTGGAT | 0.999 ± 0.034
AACTGTGTAC | 1.056 ± 0.0085
AACTGTGTTT | 0.983 ± 0.04
AACTGTTCTT | 1.01 ± 0.011
AACTGTTTGC | 0.983 ± 0.04
AACTTGGCAT | 1.02 ± 0.011
AACTTGGTGG | 0.944 ± 0.033
AACTTGTCAT | 1 ± 0.0063

Sequence | switch fluorescence ratio
AACTTTATCC | 1.09 ± 0.042
AACTTTATTT | 0.992 ± 0.018
AAGAAGAACA | 1.02 ± 0.02
AAGAAGGAAC | 1 ± 0.02
AAGAAGGATG | 0.982 ± 0.049
AAGAAGGGAG | 0.982 ± 0.01
AAGAAGGTTG | 0.9847 ± 0.0061
AAGAAGTTGC | 0.9861 ± 0.0034
AAGAAGTTTT | 1 ± 0.035
AAGACCGGGG | 1.0215 ± 0.00047
AAGACTCACG | 1.05 ± 0.052
AAGACTGTGC | 1.01 ± 0.022
AAGAGAGTAT | 0.992 ± 0.0083
AAGAGGGGAA | 0.988 ± 0.062
AAGAGGGTTC | 1.02 ± 0.081
AAGAGGTAGT | 1.02 ± 0.015
AAGAGGTATA | 1.01 ± 0.032
AAGAGGTTTG | 0.949 ± 0.013
AAGAGTTCTT | 1.01 ± 0.03
AAGATAGGGA | 0.9792 ± 0.0035
AAGATAGGGG | 1 ± 0.023
AAGATATAGA | 1.014 ± 0.0027
AAGATATAT | 0.984 ± 0.035

Sequence | switch fluorescence ratio
AAGATATTCT | 1.027 ± 0.0091
AAGATGGCAG | 0.986 ± 0.029
AAGATGTATG | 0.99 ± 0.02
AAGATGTTAG | 0.9926 ± 0.0062
AAGATGTTTG | 0.975 ± 0.021
AAGATTCTCG | 1.004 ± 0.0095
AAGATTTTGG | 0.979 ± 0.015
AAGCAAATCT | 1.18 ± 0.04
AAGCAACAGT | 1.094 ± 0.0035
AAGCAGCCCT | 1.02 ± 0.015
AAGCAGGGAT | 0.999 ± 0.033
AAGCATAGGT | 0.995 ± 0.018
AAGCCAAGTA | 1 ± 0.023
AAGCCAGGCC | 1.03 ± 0.025
AAGCCCCTTG | 0.992 ± 0.034
AAGCCGTCGG | 1.02 ± 0.013
AAGCCTAATG | 0.996 ± 0.017
AAGCCTATTG | 0.961 ± 0.017
AAGCCTGGAG | 1.02 ± 0.026
AAGCCTGGTG | 1.6 ± 0.063
AAGCCTTGGG | 1.02 ± 0.022
AAGCCTTTGC | 1.052 ± 0.0041
AAGCGCCTTT | 0.985 ± 0.02

Sequence | switch fluorescence ratio
AAGCGCTGTT | 1.003 ± 0.0073
AAGCGGACGG | 0.9536 ± 0.0046
AAGCGGCGTA | 1.01 ± 0.042
AAGCGGCTTC | 0.988 ± 0.013
AAGCGGTAGG | 1.03 ± 0.015
AAGCGGTGAG | 0.989 ± 0.031
AAGCTAGTAA | 0.865 ± 0.012
AAGCTGGCGG | 0.9911 ± 0.0096
AAGCTTGAAG | 1.01 ± 0.013
AAGGAAGAAA | 0.974 ± 0.068
AAGGAAGACT | 0.974 ± 0.021
AAGGAAGGAG | 1.03 ± 0.038
AAGGAATAGC | 1.044 ± 0.002
AAGGAGGGAG | 0.992 ± 0.026
AAGGAGGTTG | 0.999 ± 0.053
AAGGAGTATT | 1.01 ± 0.026
AAGGAGTTGG | 0.989 ± 0.025
AAGGATGGGA | 1 ± 0.023
AAGGATGTGT | 0.98 ± 0.012
AAGGATTATA | 0.985 ± 0.061
AAGGATTCCA | 0.981 ± 0.014
AAGGCCTTCG | 1.12 ± 0.021
AAGGCGCGGC | 0.9694 ± 0.0088

Sequence | switch fluorescence ratio
AAGGCGGCAT | 1 ± 0.044
AAGGCGGCGG | 0.991 ± 0.034
AAGGCGGGGT | 0.997 ± 0.033
AAGGCGGTCA | 1.01 ± 0.04
AAGGCGTCGG | 0.993 ± 0.026
AAGGCTGTAA | 0.97831 ± 0.0009
AAGGGAAAAA | 1.03 ± 0.092
AAGGGAAAGA | 1.02 ± 0.061
AAGGGAAGCG | 1.01 ± 0.039
AAGGGACTTG | 0.995 ± 0.018
AAGGGCAGGG | 1.03 ± 0.029
AAGGGCAGGT | 1.01 ± 0.03
AAGGGCCAGC | 0.9896 ± 0.0042
AAGGGCCGTG | 1.02 ± 0.04
AAGGGCCTTC | 1.025 ± 0.0071
AAGGGCGCTC | 0.975 ± 0.032
AAGGGCGGC | 1.03 ± 0.018
AAGGGCTACG | 0.983 ± 0.04
AAGGGCTAGA | 1 ± 0.016
AAGGGGAAAG | 0.998 ± 0.025
AAGGGGAACT | 0.9907 ± 0.0043
AAGGGGAGAG | 0.993 ± 0.018
AAGGGGCACT | 1.02 ± 0.047

Sequence | switch fluorescence ratio
AAGGGGCAGG | 1.04 ± 0.084
AAGGGGCCCT | 1.0195 ± 0.00095
AAGGGGCCGA | 0.994 ± 0.034
AAGGGGCCGC | 0.982 ± 0.026
AAGGGGGAAG | 0.971 ± 0.015
AAGGGGGAAT | 1.05 ± 0.031
AAGGGGGAGA | 0.994 ± 0.03
AAGGGGGCGT | 1 ± 0.026
AAGGGGGG | 0.994 ± 0.062
AAGGGGGGAA | 1.06 ± 0.21
AAGGGGGGGC | 0.998 ± 0.062
AAGGGGTGGA | 1.01 ± 0.05
AAGGGTGGTC | 0.957 ± 0.012
AAGGGTTAAG | 0.9975 ± 0.006
AAGGGTTGAG | 0.981 ± 0.046
AAGGGTTGTT | 1.01 ± 0.032
AAGGGTTTGA | 1.032 ± 0.0096
AAGGTACCGG | 1.01 ± 0.03
AAGGTACCGT | 1.05 ± 0.055
